Target: the molecule itself

B1: H46R/H48Q SOD1 with ebsulphur conjugated at Cys111 (enzyme)
chain: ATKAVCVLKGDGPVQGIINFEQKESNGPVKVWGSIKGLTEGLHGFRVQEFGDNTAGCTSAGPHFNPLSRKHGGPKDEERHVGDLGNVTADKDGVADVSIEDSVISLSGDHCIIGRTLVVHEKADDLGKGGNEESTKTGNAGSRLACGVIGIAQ
modifications: ebsulphur conjugated at Cys111
**Q.** B1 was tested. Which Kd did it give?
**A.** Its Kd is 676 nM.

Source: publication PMC5923229 (2018)
